Measured values reported in the RNAGym collection of RNA variant scans (doi:10.1021/acssynbio.7b00057).

B1: Pistol ribozyme (parent)
chain: GGGUCGUUGUUCCAUAAUCGCGUGGAUAUGGCACGCAAGUUUCUACCGGGCACCGUAAAUGUCCGACUGGAGCCGUUCGGGCGGCUAUAAACAGACCUCAGGCCCGAAGCGUGGCGGCACCUGCCGCCGGUGGUAAAAAAGAUCGGAAGAGCACACGUCU

Variants of: B1
Test: aptazyme ON/OFF ratio, guanine; higher = stronger switching; co-transcriptional cleavage with and without guanine

Row | Variant | aptazyme ON/OFF ratio
1 | U7C U8A G9U C12A C13U | 1.15
2 | U7C U8A G9U U10C U11G C12G C13A | 1.16
3 | U7C U8A G9U U10C U11G C12G C13U | 1.11
4 | U7C U8A G9U U10C U11G C12G C13G | 1.08
5 | U7C U8A G9C U10C C13U | 1.23
6 | U7C U8A G9C U10C C13A | 1.03
7 | U7C U8A G9C U10C C13G | 1.05
8 | U7C U8A G9U C12U C13A | 1.09
9 | U7C U8A G9U C12U C13U | 1.29
10 | U7C U8A G9U C12U C13G | 1.14
11 | U7C U8A G9U C12A | 1.06
12 | U7C U8A G9U C12U | 1.34
13 | U7C U8A G9U C12G | 1.16
14 | U7C U8A G9C U11C C12A C13U | 1.08
15 | U7C U8A G9C U11C C12A C13G | 1.07
16 | U7C U8A G9C U11C C12A C13A | 1.04
17 | U7C U8A G9U U10A U11C C12A C13G | 1.17
18 | U7C U8A G9U U10A U11C C12A C13U | 1.22
19 | U7C U8A G9U U10A U11C C12A C13A | 1.18
20 | U7C U8A G9U U10C U11G C12A C13U | 1.1
21 | U7C U8A G9U U10C U11G C12A C13G | 1.09

Row | Variant | aptazyme ON/OFF ratio
22 | U7C U8A G9U U10C U11G C12A C13A | 1.11
23 | U7C U8A G9C U11A C12G C13A | 1.13
24 | U7C U8A G9C U11A C12G C13U | 1.14
25 | U7C U8A G9C U11A C12G C13G | 1.17
26 | U7C U8A G9U U10A U11A C12U C13A | 1.2
27 | U7C U8A G9U U10A U11A C12U C13U | 1.36
28 | U7C U8A G9U U10A U11A C12U C13G | 1.21
29 | U7C U8A G9C U10G U11A C12A C13U | 1.33
30 | U7C U8A G9C U10G U11A C12A C13G | 1.13
31 | U7C U8A G9C U10G U11A C12A C13A | 1.17
32 | U7C U8A G9C U11G C12U | 1.29
33 | U7C U8A G9C U11G C12G | 1.2
34 | U7C U8A G9C U11G C12A | 1.06
35 | U7C U8A G9C U10C C12U C13U | 1.05
36 | U7C U8A G9C U10C C12U C13A | 1.06
37 | U7C U8A G9C U10C C12U C13G | 1.06
38 | U7C U8A G9U U10A C12A C13A | 1.29
39 | U7C U8A G9U U10A C12A C13U | 1.22
40 | U7C U8A G9U U10A C12A C13G | 1.16
41 | U7C U8A G9U U10C U11C C12U | 1.08
42 | U7C U8A G9U U10C U11C C12A | 1.06

Row | Variant | aptazyme ON/OFF ratio
43 | U7C U8A G9U U10C U11C C12G | 1.03
44 | U7C U8A G9U U10C C12A C13U | 1.15
45 | U7C U8A G9U U10C C12A C13A | 1.13
46 | U7C U8A G9U U10C C12A C13G | 1.15
47 | U7C U8A G9C U10A U11G C12U C13A | 1.1
48 | U7C U8A G9C U10A U11G C12U C13U | 1.13
49 | U7C U8A G9C U10A U11G C12U C13G | 1.08
50 | U7C U8A G9C U10C U11C C13U | 1.03
51 | U7C U8A G9C U10C U11C C13A | 1.01
52 | U7C U8A G9C U10C U11C C13G | 1
53 | U7C U8A G9C U10C U11G C12U C13G | 1.11
54 | U7C U8A G9C U10C U11G C12U C13A | 1.05
55 | U7C U8A G9C U10C U11G C12U C13U | 1.1
56 | U7C U8A G9U U10A U11G C12G C13U | 1.12
57 | U7C U8A G9U U10A U11G C12G C13G | 1.26
58 | U7C U8A G9U U10A U11G C12G C13A | 1.15
59 | U7C U8A G9U U10A C12G | 1.18
60 | U7C U8A G9U U10A C12A | 1.19
61 | U7C U8A G9U U10A C12U | 1.19
62 | U7C U8A G9C U11C C13A | 1.14
63 | U7C U8A G9C U11C C13G | 1.04

Row | Variant | aptazyme ON/OFF ratio
64 | U7C U8A G9C U11C C13U | 1.05
65 | U7C U8A G9U U10C U11G C13A | 1.18
66 | U7C U8A G9U U10C U11G C13G | 1.04
67 | U7C U8A G9U U10C U11G C13U | 1.19
68 | U7C U8A G9C U10G U11C C13U | 1.09
69 | U7C U8A G9C U10G U11C C13A | 1.39
70 | U7C U8A G9C U10G U11C C13G | 1.05
71 | U7C U8A G9C U10G U11G C12A C13U | 1.06
72 | U7C U8A G9C U10G U11G C12A C13A | 1.09
73 | U7C U8A G9C U10G U11G C12A C13G | 1.12
74 | U7C U8A G9U U10G C12A C13A | 1.19
75 | U7C U8A G9U U10G C12A C13G | 1.13
76 | U7C U8A G9U U10G C12A C13U | 1.17
77 | U7C U8A G9U U10A C13G | 1.05
78 | U7C U8A G9U U10A C13A | 1.2
79 | U7C U8A G9U U10A C13U | 1.19
80 | U7C U8A G9C U10G U11C C12A C13G | 1.21
81 | U7C U8A G9C U10G U11C C12A C13U | 1.43
82 | U7C U8A G9C U10G U11C C12A C13A | 1.36
83 | U7C U8A G9U U10C C12U C13G | 1.12
84 | U7C U8A G9U U10C C12U C13U | 1.13
